{
  "source": "IntAct's records for PubMed 22244764",
  "parents": {"B1": {"name": "Mortality factor 4-like protein 1 (Homo sapiens), Q9UBU8-2 (parent)", "chain": "MAPKQDPKPKFQEGERVLCFHGPLLYEAKCVKVAIKDKQVKYFIHYSGWNKNWDEWVPESRVLKYVDTNLQKQRELQKANQEQYAEGKMRGAAPGKKTSGLQQKNVEVKTKKNKQKTPGNGDGGSTSETPQPPRKKRARVDPTVENEETFMNRVEVKVKIPEELKPWLVDDWDLITRQKQLFYLPAKKNVDSILEDYANYKKSRGNTDNKEYAVNEVVAGIKEYFNVMLGTQLLYKFERPQYAEILADHPDAPMSQVYGAPHLLRLFVRIGAMLAYTPLDEKSLALLLNYLHDFLKYLAKNSATLFSASDYEVAPPEYHRKAV"}, "B2": {"name": "PHD finger protein 12 (Homo sapiens), Q96QT6 (parent)", "chain": "MWEKMETKTIVYDLDTSGGLMEQIQALLAPPKTDEAEKRSRKPEKEPRRSGRATNHDSCDSCKEGGDLLCCDHCPAAFHLQCCNPPLSEEMLPPGEWMCHRCTVRRKKREQKKELGHVNGLVDKSGKRTTSPSSDTDLLDRSASKTELKAIAHARILERRASRPGTPTSSASTETPTSEQNDVDEDIIDVDEEPVAAEPDYVQPQLRRPFELLIAAAMERNPTQFQLPNELTCTTALPGSSKRRRKEETTGKNVKKTQHELDHNGLVPLPVKVCFTCNRSCRVAPLIQCDYCPLLFHMDCLEPPLTAMPLGRWMCPNHIEHVVLNQKNMTLSNRCQVFDRFQDTVSQHVVKVDFLNRIHKKHPPNRRVLQSVKRRSLKVPDAIKSQYQFPPPLIAPAAIRDGELICNGIPEESQMHLLNSEHLATQAEQQEWLCSVVALQCSILKHLSAKQMPSHWDSEQTEKADIKPVIVTDSSVTTSLQTADKTPTPSHYPLSCPSGISTQNSLSCSPPHQSPALEDIGCSSCAEKSKKTPCGTANGPVNTEVKANGPHLYSSPTDSTDPRRLPGANTPLPGLSHRQGWPRPLTPPAAGGLQNHTVGIIVKTENATGPSSCPQRSLVPVPSLPPSIPSSCASIENTSTLQRKTVQSQIGPPLTDSRPLGSPPNATRVLTPPQAAGDGILATTANQRFSSPAPSSDGKVSPGTLSIGSALTVPSFPANSTAMVDLTNSLRAFMDVNGEIEINMLDEKLIKFLALQRIHQLFPSRVQPSPGSVGTHQLASGGHHIEVQRKEVQARAVFYPLLGLGGAVNMCYRTLYIGTGADMDVCLTNYGHCNYVSGKHACIFYDENTKHYELLNYSEHGTTVDNVLYSCDFSEKTPPTPPSSIVAKVQSVIRRRRHQKQDEEPSEEAAMMSSQAQGPQRRPCNCKASSSSLIGGSGAGWEGTALLHHGSYIKLGCLQFVFSITEFATKQPKGDASLLQDGVLAEKLSLKPHQGPVLRSNSVP"}, "B3": {"name": "PHD finger protein 12 (Mus musculus), Q5SPL2 (parent)", "chain": "MWEKMETKTIVYDLDTSGGLMEQIQALLAPPKTDEAEKRSRKPEKESRRSGRATNHDSCDSCKEGGDLLCCDHCPAAFHLQCCNPPLSEEMLPPGEWMCHRCTVRRKKREQKKELGHVNGLVDKSSKRTTSPSSDTDLLDRPASKTELKAIAHARILERRASRPGTPTSNASTETPTSEHNDVDEDIVDVDEEPVAAEPDYVQPQLRRPFELLIAAAMERNPTQFQLPNELTCTTALPGSSKRRRKEETTGKNVKRTQHELDHNGLVPLPVKVCFTCNRSCRVAPLIQCDYCPLLFHMDCLEPPLTAMPLGRWMCPNHIEHVVLNQKNLTLSNRCQVFDRFQDTISQHVVKVDFLNRIHKKHPPNRRVLQSVKRRSLKVPDAIKSQYQFPPPLIAPAAIRDGELICSGVPEESQTHLLNSEHLATQAEQQEWLCSVVALQCSILKHLSAKQMPSPWDSEQTEKADIKPVIVTDSSITTSLQTADKAPLPSHYPLSCPSAVSTQNSLGCSPPHQPPTLEDISCSSCVEKSKKAPCGTANGPVNTEIKANGPHLYSSPTDSTDPRRLPGANTPLPGLTHRQGWPRPLTPPSAGGLQNHVGIIVKTENATGPSSCPQRSLVPVPSLPPSIPSSCASIENTSTLHRKTVQSQIGPSSTESRPLGSPPNATRVLTPPQAAGDSILATGANQRFCSPAPSSDGKVSPGTLSIGSALTVPSFPANSTAMVDLTNSLRAFMDVNGEIEINMLDEKLIKFLALQRVHQLFPSRVQASPGNVGTHPLASGGHHPEVQRKEVQARAVFCPLLGLGGAVNMCYRTLYIGTGADMDVCLTNYGHCNYVSGKHACIFYDENTKHYELLNYSEHGTTVDNVLYSCDFSEKTPPTPPSSIVAKVQSVIRRRRHQKQDEEPSEEAAMMSSQAQGPQRRPCNCKASSSSLIGGSGAGWEGTALLHHGSYIKLGCLQFVFSITEFATKQPKGDASLLQDGVLAEKLSLKPHQGPVLRSNSVP"}},
  "data": [
    {"variants_of": "B1", "settings": "with phf12_mouse Phf12, Q5SPL2", "values": [
      {"variant": "L287A", "effect of a mutation on the interaction": "decreasing interaction"},
      {"variant": "V227A", "effect of a mutation on the interaction": "decreasing interaction"},
      {"variant": "L168A", "effect of a mutation on the interaction": "decreasing interaction"}
    ]},
    {"variants_of": "B1", "settings": "with phf12_human PHF12, Q96QT6", "values": [
      {"variant": "L287A", "effect of a mutation on the interaction": "decreasing interaction"},
      {"variant": "V268A", "effect of a mutation on the interaction": "decreasing interaction"},
      {"variant": "W172A", "effect of a mutation on the interaction": "decreasing interaction"},
      {"variant": "M228A", "effect of a mutation on the interaction": "decreasing interaction"},
      {"variant": "V227A", "effect of a mutation on the interaction": "decreasing interaction"},
      {"variant": "Y235A", "effect of a mutation on the interaction": "disrupting interaction"}
    ]},
    {"variants_of": "B2", "settings": "with MORF4L1, Q9UBU8-2", "values": [
      {"variant": "N221E", "effect of a mutation on the interaction": "decreasing interaction"},
      {"variant": "P228A", "effect of a mutation on the interaction": "decreasing interaction"},
      {"variant": "F210A", "effect of a mutation on the interaction": "decreasing interaction"},
      {"variant": "L213A", "effect of a mutation on the interaction": "decreasing interaction"},
      {"variant": "F225A", "effect of a mutation on the interaction": "decreasing interaction"},
      {"variant": "L227A", "effect of a mutation on the interaction": "decreasing interaction"}
    ]},
    {"variants_of": "B3", "settings": "with MORF4L1, Q9UBU8-2", "values": [
      {"variant": "P228A", "effect of a mutation on the interaction": "decreasing interaction"},
      {"variant": "L213A", "effect of a mutation on the interaction": "disrupting interaction"},
      {"variant": "F225A", "effect of a mutation on the interaction": "disrupting interaction strength"},
      {"variant": "L227A", "effect of a mutation on the interaction": "disrupting interaction"},
      {"variant": "F210A", "effect of a mutation on the interaction": "disrupting interaction"}
    ]}
  ]
}
